Assay results from patent US20250333749A1, “INDUCIBLE PROMOTER, VECTOR AND HOST CELL BASED THEREON” (JOINT STOCK COMPANY «BIOCAD», priority 2021, published 2025).
One block for each molecule: values may come before it.

Key:
[1] = biological target: AXL receptor expressed on HEK293 reporter cells (HEK293_STAT3-STAT5-AP1_FLuc_AXL; HEK293_AXL_STAT3-STAT5-AP1_FLuc) (UniProt P30530); assay: cell-based or functional assay
[2] = test system: HEK293 Nf-kB reporter line; assay: Activation of HEK293 Nf-kB reporter line by PMA (luciferase); assay type: cell-based; conditions: 24 hours incubation; FIG. 5
Protocol: (§1) We used a PMA activator to screen clonal reporter lines. This agent directly effects protein kinase C, thus triggering signaling cascades that activate the reporter gene expression (https://doi.org/10.1007/s11373-005-1210-5; doi: 10.1093/carcin/bgm261). To determine the optimal dose of PMA, we conducted experiments involving activation of the HEK293 Nf-kB reporter line. Cells were seeded in a white 96-well culture plate for adhesion cultures at 3*10^5 cells per well, and PMA activator was added at concentrations indicated in the graph up to 150 μl in a well. All solutions were prepared in DMEM growth medium supplemented with 10% fetal bovine serum, 2 mM L-glutamine and 10 μg/ml gentamicin. The plate was incubated for 24 hours at 37° C. in a humid atmosphere in the presence of 5% CO2. Following incubation, the wells were drained, and 100 μl of luciferin substrate with a lysing component was added, the plate was left in the dark for 10 minutes, after which the luminescence level was detected using a plate reader using the SparkControl V2.1 software package (Tecan, Austria).

[3] = test system: HEK293-STAT3-STAT5-AP1_FLuc_IL10R cells (IL-10 receptor); assay: IL10 activity determination test (luciferase expression activation); assay type: cell-based, human; conditions: various concentrations of IL10; FIG. 8
Protocol: as §1
To evaluate the reporter line in a specific cell test, we expressed the IL-10 receptor onto the surface of the reporter cells. To this end, the HEK293_STAT3-STAT5-AP1_FLuc reporter cell line produced in Example 4 was transfected with plasmid vectors encoding IL-10 receptor subunits produced in Example 2. […]

[4] = test system: HEK293_STAT3-STAT5-AP1_FLuc_AXL cells (AXL receptor); assay: GAS6-dependent AXL-mediated activation of reporter cell line HEK293_STAT3-STAT5-AP1_FLuc_AXL; assay type: cell-based; conditions: GAS6 2 μg/ml
Protocol: (§2) To generate the reporter cell line HEK293_STAT3-STAT5-AP1_FLuc_AXL, we used three clones of the universal reporter cell line HEK293_STAT3-STAT5-AP1_FLuc: cl. D1, cl. B3 and cl. C4 #2; on the basis of them, we produced, respectively, 3 pools of cells with an embedded constitutionally expressed AXL receptor gene. AXL-mediated activation of these pools was tested. The test was performed in a 96-well culture plate designed for luminescence assays. […] The final volume of the cell suspension in a well was 100 μl, all components of the suspension were prepared in DMEM medium free of fetal bovine serum. After adding all the components, the plate was incubated for 16 hours at 37° C., 5% CO2, and then, using a luminescence assay kit, we measured the luminescence intensity in the wells. The measurement was carried out using a plate reader. The activation level was calculated as the ratio of luminescence level for a given pool in the presence of GAS6 to luminescence level in the absence of GAS6.
B3 and cl. […] D1. […]
The test was performed similarly to the procedure described in Example 7, we used the cells of the reporter line HEK293_STAT3-STAT5-AP1_FLuc_AXL (cl.13) and GAS6 at a concentration of 2 μg/ml (FIG. 11) for activation; following adding all the components, the plate was incubated for the time shown in the graph, the luminescence intensity in the wells was then determined. […]

[5] = test system: HEK293_AXL_STAT3-STAT5-AP1 cells (AXL overexpresser); assay: GAS6 activation of reporter cell line HEK293_AXL_STAT3-STAT5-AP1 as a function of cell count; assay type: cell-based; conditions: GAS6 2 μg/ml; 96-well plate; FIG. 17
Protocol: as §2
To create the reporter cell line HEK293_AXL_STAT3-STAT5-AP1_FLuc, we used the cell line HEK293_AXL, an AXL overexpresser, on the basis of which we produced a pool of cells comprising a gene encoding firefly luciferase under the control of STAT3-STAT5-AP1 promoter. […] The test was performed in a similar fashion to the procedure described in Example 7, at a concentration of GAS6 of 2 μg/ml. […]

Sequence of UniProt P30530 (P30530 26-894 limits assumed): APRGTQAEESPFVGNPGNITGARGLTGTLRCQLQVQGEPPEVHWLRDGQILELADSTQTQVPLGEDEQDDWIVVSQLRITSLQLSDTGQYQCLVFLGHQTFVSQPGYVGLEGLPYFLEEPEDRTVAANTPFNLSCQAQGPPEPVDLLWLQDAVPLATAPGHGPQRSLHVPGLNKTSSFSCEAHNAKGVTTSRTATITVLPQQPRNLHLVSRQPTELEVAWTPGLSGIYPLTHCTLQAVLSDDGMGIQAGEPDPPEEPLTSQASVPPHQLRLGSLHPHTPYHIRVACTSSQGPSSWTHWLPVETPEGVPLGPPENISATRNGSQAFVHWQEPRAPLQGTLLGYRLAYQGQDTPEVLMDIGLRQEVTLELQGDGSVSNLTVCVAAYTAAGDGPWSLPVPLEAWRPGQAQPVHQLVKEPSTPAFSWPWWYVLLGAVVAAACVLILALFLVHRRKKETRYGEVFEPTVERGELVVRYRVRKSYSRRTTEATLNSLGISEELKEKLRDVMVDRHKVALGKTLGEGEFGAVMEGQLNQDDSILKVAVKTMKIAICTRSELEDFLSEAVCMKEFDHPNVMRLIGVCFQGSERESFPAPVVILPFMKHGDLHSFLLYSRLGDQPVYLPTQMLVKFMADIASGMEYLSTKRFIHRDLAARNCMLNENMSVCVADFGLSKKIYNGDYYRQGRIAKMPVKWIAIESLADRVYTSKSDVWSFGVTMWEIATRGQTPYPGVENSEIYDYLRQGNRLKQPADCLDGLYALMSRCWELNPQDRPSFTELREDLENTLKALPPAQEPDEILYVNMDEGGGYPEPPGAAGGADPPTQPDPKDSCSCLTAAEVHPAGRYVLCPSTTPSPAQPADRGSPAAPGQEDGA

level of GAS6-dependent activation, well A1 (fold over non-activated cells) [1]: 1.35
level of GAS6-dependent activation, well A2 (fold over non-activated cells) [1]: 1.59
level of GAS6-dependent activation, well A3 (fold over non-activated cells) [1]: 8.66
level of GAS6-dependent activation, well A4 (fold over non-activated cells) [1]: 1.09
level of GAS6-dependent activation, well A6 (fold over non-activated cells) [1]: 1.49
level of GAS6-dependent activation, well A7 (fold over non-activated cells) [1]: 2.16
level of GAS6-dependent activation, well A8 (fold over non-activated cells) [1]: 0.85
level of GAS6-dependent activation, well A9 (fold over non-activated cells) [1]: 0.96
level of GAS6-dependent activation, well A10 (fold over non-activated cells) [1]: 6.93
level of GAS6-dependent activation, well A11 (fold over non-activated cells) [1]: 1.54
level of GAS6-dependent activation, well B1 (fold over non-activated cells) [1]: 1.09
level of GAS6-dependent activation, well B2 (fold over non-activated cells) [1]: 2.12
level of GAS6-dependent activation, well B3 (fold over non-activated cells) [1]: 1.33
level of GAS6-dependent activation, well B4 (fold over non-activated cells) [1]: 1.28
level of GAS6-dependent activation, well B5 (fold over non-activated cells) [1]: 1.5
level of GAS6-dependent activation, well B6 (fold over non-activated cells) [1]: 0.99
level of GAS6-dependent activation, well B7 (fold over non-activated cells) [1]: 1.12
level of GAS6-dependent activation, well B8 (fold over non-activated cells) [1]: 2.1
level of GAS6-dependent activation, well B9 (fold over non-activated cells) [1]: 1.26
level of GAS6-dependent activation, well B10 (fold over non-activated cells) [1]: 1.58
level of GAS6-dependent activation, well B11 (fold over non-activated cells) [1]: 2.56
level of GAS6-dependent activation, well B12 (fold over non-activated cells) [1]: 1.4
level of GAS6-dependent activation, well C1 (fold over non-activated cells) [1]: 0.92
level of GAS6-dependent activation, well C2 (fold over non-activated cells) [1]: 1.32
level of GAS6-dependent activation, well C3 (fold over non-activated cells) [1]: 0.95
level of GAS6-dependent activation, well C4 (fold over non-activated cells) [1]: 1.2
level of GAS6-dependent activation, well C5 (fold over non-activated cells) [1]: 1.2
level of GAS6-dependent activation, well C6 (fold over non-activated cells) [1]: 4.37
level of GAS6-dependent activation, well C8 (fold over non-activated cells) [1]: 1.04
level of GAS6-dependent activation, well C9 (fold over non-activated cells) [1]: 1.77
level of GAS6-dependent activation, well C10 (fold over non-activated cells) [1]: 3.15
level of GAS6-dependent activation, well C11 (fold over non-activated cells) [1]: 5.55
level of GAS6-dependent activation, well C12 (fold over non-activated cells) [1]: 1.47
level of GAS6-dependent activation, well D1 (fold over non-activated cells) [1]: 1.25
level of GAS6-dependent activation, well D2 (fold over non-activated cells) [1]: 1.29
level of GAS6-dependent activation, well D3 (fold over non-activated cells) [1]: 2.38
level of GAS6-dependent activation, well D4 (fold over non-activated cells) [1]: 2.41
level of GAS6-dependent activation, well D5 (fold over non-activated cells) [1]: 2.63
level of GAS6-dependent activation, well D6 (fold over non-activated cells) [1]: 1.32
level of GAS6-dependent activation, well D7 (fold over non-activated cells) [1]: 1.16
level of GAS6-dependent activation, well D8 (fold over non-activated cells) [1]: 2.12
level of GAS6-dependent activation, well D9 (fold over non-activated cells) [1]: 1.55
level of GAS6-dependent activation, well D10 (fold over non-activated cells) [1]: 1.68
level of GAS6-dependent activation, well D11 (fold over non-activated cells) [1]: 3.74
level of GAS6-dependent activation, well D12 (fold over non-activated cells) [1]: 1.23
level of GAS6-dependent activation, well E1 (fold over non-activated cells) [1]: 1.83
level of GAS6-dependent activation, well E2 (fold over non-activated cells) [1]: 0.93
level of GAS6-dependent activation, well E3 (fold over non-activated cells) [1]: 3.03
level of GAS6-dependent activation, well E4 (fold over non-activated cells) [1]: 1.18
level of GAS6-dependent activation, well E5 (fold over non-activated cells) [1]: 1.73
level of GAS6-dependent activation, well E6 (fold over non-activated cells) [1]: 1.51
level of GAS6-dependent activation, well E7 (fold over non-activated cells) [1]: 2.14
level of GAS6-dependent activation, well E8 (fold over non-activated cells) [1]: 1.13
level of GAS6-dependent activation, well E9 (fold over non-activated cells) [1]: 1.74
level of GAS6-dependent activation, well E10 (fold over non-activated cells) [1]: 1.55
level of GAS6-dependent activation, well E11 (fold over non-activated cells) [1]: 0.86
level of GAS6-dependent activation, well E12 (fold over non-activated cells) [1]: 1.03
level of GAS6-dependent activation, well F1 (fold over non-activated cells) [1]: 1.55
level of GAS6-dependent activation, well F2 (fold over non-activated cells) [1]: 1.34
level of GAS6-dependent activation, well F3 (fold over non-activated cells) [1]: 7.48
level of GAS6-dependent activation, well F4 (fold over non-activated cells) [1]: 1.79
level of GAS6-dependent activation, well F5 (fold over non-activated cells) [1]: 1.69
level of GAS6-dependent activation, well F7 (fold over non-activated cells) [1]: 2.89
level of GAS6-dependent activation, well F8 (fold over non-activated cells) [1]: 1.58
level of GAS6-dependent activation, well F9 (fold over non-activated cells) [1]: 1.53
level of GAS6-dependent activation, well F10 (fold over non-activated cells) [1]: 1.35
level of GAS6-dependent activation, well F11 (fold over non-activated cells) [1]: 1.29
level of GAS6-dependent activation, well F12 (fold over non-activated cells) [1]: 5.65
level of GAS6-dependent activation, well G1 (fold over non-activated cells) [1]: 2.05
level of GAS6-dependent activation, well G2 (fold over non-activated cells) [1]: 3.08
level of GAS6-dependent activation, well G3 (fold over non-activated cells) [1]: 2.51
level of GAS6-dependent activation, well G4 (fold over non-activated cells) [1]: 1.05
level of GAS6-dependent activation, well G5 (fold over non-activated cells) [1]: 1.55
level of GAS6-dependent activation, well G7 (fold over non-activated cells) [1]: 2.12
level of GAS6-dependent activation, well G8 (fold over non-activated cells) [1]: 2.51
level of GAS6-dependent activation, well G9 (fold over non-activated cells) [1]: 1.78
level of GAS6-dependent activation, well G10 (fold over non-activated cells) [1]: 2.5
level of GAS6-dependent activation, well G11 (fold over non-activated cells) [1]: 2.26
level of GAS6-dependent activation, well G12 (fold over non-activated cells) [1]: 3.43
level of GAS6-dependent activation, well H11 (the pool) (fold over non-activated cells) [1]: 3.61
level of GAS6-dependent activation, well H12 (fold over non-activated cells) [1]: 1.94
Molecule: AXL ligand GAS6 (from UniProt Q14393 49-678)

Molecule: CCCCCCCCCCCCCC(=O)O[C@@H]1[C@@H](C)[C@@]2(O)[C@@H](C=C(CO)C[C@]3(O)C(=O)C(C)=C[C@@H]23)[C@@H]2C(C)(C)[C@]12OC(C)=O [PMA]
optimal concentration of the PMA activator [2]: 33 nM

B1: IL10: Recombinant human IL10 used as an activator (protein)
chain: SPGQGTQSENSCTHFPGNLPNMLRDLRDAFSRVKTFFQMKDQLDNLLLKESLLEDFKGYLGCQALSEMIQFYLEEVMPQAENQDPDIKAHVNSLGENLKTLRLRLRRCHRFLPCENKSKAVEQVKNAFNKLQEKGIYKAMSEFDIFINYIEAYMTMKIRN
response of the reporter cell line to IL10 activator [3]: dose-dependent response

B2: GAS6: the AXL ligand GAS6; activator of AXL-dependent cell signaling (protein)
chain: AFQVFEEAKQGHLERECVEELCSREEAREVFENDPETDYFYPRYLDCINKYGSPYTKNSGFATCVQNLPDQCTPNPCDRKGTQACQDLMGNFFCLCKAGWGGRLCDKDVNECSQENGGCLQICHNKPGSFHCSCHSGFELSSDGRTCQDIDECADSEACGEARCKNLPGSYSCLCDEGFAYSSQEKACRDVDECLQGRCEQVCVNSPGSYTCHCDGRGGLKLSQDMDTCEDILPCVPFSVAKSVKSLYLGRMFSGTPVIRLRFKRLQPTRLVAEFDFRTFDPEGILLFAGGHQDSTWIVLALRAGRLELQLRYNGVGRVTSSGPVINHGMWQTISVEELARNLVIKVNRDAVMKIAVAGDLFQPERGLYHLNLTVGGIPFHEKDLVQPINPRLDGCMRSWNWLNGEDTTIQETVKVNTRMQCFSVTERGSFYPGSGFAFYSLDYMRTPLDVGTESTWEVEVVAHIRPAADTGVLFALWAPDLRAVPLSVALVDYHSTKKLKKQLVVLAVEHTALALMEIKVCDGQEHVVTVSLRDGEATLEVDGTRGQSEVSAAQLQERLAVLERHLRSPVLTFAGGLPDVPVTSAPVTAFYRGCMTLEVNRRLLDLDEAAYKHSDITAHSCPPVEPAAA
Level of GAS6-dependent activation (activation relative to non-activated cells) ([4]; well H11 = initial pool (based on cl. D1)): 3.61
incubation time with the highest level of activation ([4]; cl.13, FIG. 11): 24 h
cell count per well with the highest level of activation [5]: 25,000-50,000 cells
